From US20240124563A1 (NANJING ZAIMING PHARMACEUTICAL, published 2024)
Blank lines part the entries; values can stand above or below the binder they belong to.

What was measured:
[1] = target: T1, human MSLN-R2-his protein (human, UniProt Q13421 391-486); experiment: ELISA, antibody 1 nM
T1 construct: MSLN-R2 = Ser391-Asn486; also called hMSLN-R2-his; not shown: histidine tag

[2] = target: T2, human MSLN-R3-his protein (human, UniProt Q13421 487-598); experiment: ELISA, antibody 1 nM
T2 construct: MSLN-R3 = Met487-Ser598; also called hMSLN-R3-his; not shown: histidine tag

[3] = target: T1, human MSLN-R2-his protein; experiment: ELISA, antibody 1 nM; remark: listed apart in the source
[4] = target: T2, human MSLN-R3-his protein; experiment: ELISA, antibody 1 nM; remark: listed apart in the source
[5] = target: T3, human MSLN-R3-3 polypeptide (purchased from GL Biochem, Cat. No. 406676) (human); experiment: ELISA, antibody 1 nM
T3 construct: Printed as Val539-Val588; also called hMSLN-R3-3
T3 peptide: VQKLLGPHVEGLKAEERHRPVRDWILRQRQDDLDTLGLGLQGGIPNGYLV

[6] = target: T1, human MSLN-R2-his protein; experiment: ELISA, antibody 10 nM
[7] = target: T2, human MSLN-R3-his protein; experiment: ELISA, antibody 10 nM
[8] = target: T1, human MSLN-R2-his protein; experiment: ELISA, antibody 0.1 nM
[9] = target: T1, human MSLN-R2-his protein; experiment: ELISA, antibody 100 nM
[10] = target: T2, human MSLN-R3-his protein; experiment: ELISA, antibody 0.1 nM
[11] = target: T2, human MSLN-R3-his protein; experiment: ELISA, antibody 100 nM
[12] = target: T1, human MSLN-R2-his protein; experiment: ELISA, antibody 0.01 nM
[13] = target: T2, human MSLN-R3-his protein; experiment: ELISA, antibody 0.01 nM
[14] = target: T1, human MSLN-R2-his protein; experiment: ELISA, antibody 0.001 nM
[15] = target: T2, human MSLN-R3-his protein; experiment: ELISA, antibody 0.001 nM
[16] = target: T1, human MSLN-R2-his protein; experiment: ELISA, antibody 0.0001 nM
[17] = target: T2, human MSLN-R3-his protein; experiment: ELISA, antibody 0.0001 nM
[18] = target: T1, human MSLN-R2-his protein; experiment: ELISA, antibody 0 nM (blank)
[19] = target: T2, human MSLN-R3-his protein; experiment: ELISA, antibody 0 nM (blank)
[20] = target: T4, human MSLN-R3-his protein (human, UniProt Q13421 487-598); experiment: ELISA, coated antigen, 1 nM antibody
T4 construct: also called hMSLN-R3-his; not shown: histidine tag

[21] = target: T4, human MSLN-R3-his protein; experiment: ELISA, coated antigen, 10 nM antibody
[22] = target: T5, human MSLN-R2-his protein (human, UniProt Q13421 391-486); experiment: ELISA, coated antigen, 20 nM antibody
T5 construct: also called hMSLN-R2-his; not shown: histidine tag

[23] = target: T4, human MSLN-R3-his protein; experiment: ELISA, coated antigen, 20 nM antibody
[24] = target: T4, human MSLN-R3-his protein; experiment: ELISA, coated antigen, 0.1 nM antibody
[25] = target: T4, human MSLN-R3-his protein; experiment: ELISA, coated antigen, 100 nM antibody
[26] = target: T5, human MSLN-R2-his protein; experiment: ELISA, coated antigen, 0.2 nM antibody
[27] = target: T4, human MSLN-R3-his protein; experiment: ELISA, coated antigen, 0.2 nM antibody
[28] = target: T4, human MSLN-R3-his protein; experiment: ELISA, coated antigen, 0.01 nM antibody
[29] = target: T4, human MSLN-R3-his protein; experiment: ELISA, coated antigen, 0.001 nM antibody
[30] = target: T4, human MSLN-R3-his protein; experiment: ELISA, coated antigen, 0.0001 nM antibody
[31] = target: T4, human MSLN-R3-his protein; experiment: ELISA, coated antigen, 0 nM antibody (blank)
[32] = target: T6, chimeric human MSLN-R3 / chicken MSLN-R1-2 protein on HEK293T cells (clone A5) (chicken; human); experiment: FACS, HEK293T-hR3/chickR1-2-A5 cells, antibody 20 nM
T6 construct: range 327-514; Human R1-R2 replaced by chicken R1-R2; also called HEK293T-chickR1-2/hR3-A5; HEK293T-hR3/chickR1-2-A5

[33] = target: T6, chimeric human MSLN-R3 / chicken …; experiment: FACS, HEK293T-hR3/chickR1-2-A5 cells, antibody 0.2 nM

T6 sequence (Q13421 495-614, change not shown): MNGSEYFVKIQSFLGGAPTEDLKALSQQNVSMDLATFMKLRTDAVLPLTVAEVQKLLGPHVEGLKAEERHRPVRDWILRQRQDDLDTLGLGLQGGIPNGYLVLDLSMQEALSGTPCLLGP

OD450 nm [1]: 1.49
OD450 nm [2]: 0.05
OD450 nm [3]: 1.49
OD450 nm [4]: 0.05
OD450 nm [5]: 0.09
OD450 nm [6]: 2.01
OD450 nm [7]: 0.05
OD450 nm [8]: 0.2
OD450 nm [9]: 2.5
OD450 nm [10]: 0.05
OD450 nm [11]: 0.05
OD450 nm [12]: 0.07
OD450 nm [13]: 0.05
OD450 nm [14]: 0.05
OD450 nm [15]: 0.05
OD450 nm [16]: 0.05
OD450 nm [17]: 0.05
OD450 nm [18]: 0.05
OD450 nm [19]: 0.05
B1: Tab020 (YP223, rabbitIgG1) (antibody, V domains shown)
VH: QEQLEESGGDLVQPEGSLTLTCKASGLDFSSSYWICWVRQAPGKGLEWIGCRHTFTANTWSASWVNGRFTISRSTSLGTVDLKMTSLTAADTATYFCARDESNNDGWDFKLWGPGTLVTVSS
VL: AYDMTQTPASVSAAVGGTVTIKCQASQSISNYLAWYQQKPGQPPKLLIYQASTLAPGVSSRFKGSGSGTEFTLTISGVECADAATYYCQQGYTSSNVENVFGGGTGVVVGD
notes: also called YP223 rabbit IgG1 antibody; rabbit anti-human MSLN antibody (Tab020)

OD450 nm [20]: 0.22 OD450 nm
OD450 nm [21]: 1.04 OD450 nm
OD450 nm [22]: 1.44 OD450 nm
OD450 nm [23]: 1.89 OD450 nm
OD450 nm [24]: 0.07 OD450 nm
OD450 nm [25]: 1.81 OD450 nm
OD450 nm [26]: 0.13 OD450 nm
OD450 nm [27]: 0.87 OD450 nm
OD450 nm [28]: 0.05 OD450 nm
OD450 nm [29]: 0.05 OD450 nm
OD450 nm [30]: 0.05 OD450 nm
OD450 nm [31]: 0.05 OD450 nm
B2: Tab106 (YP218, hIgG1) (antibody, V domains shown)
VH: QQQLEESGGGLVKPEGSLTLTCKASGFDLGFYFYACWVRQAPGKGLEWIACIYTAGSGSTYYASWAKGRFTISKASSTTVTLQMTSLAAADTATYFCARSTANTRSTYYLNLWGPGTLVTVSS
VL: DVVMTQTPASVSEPVGGTVTIKCQASQRISSYLSWYQQKPGQRPKLLIFGASTLASGVPSRFKGSGSGTEYTLTISDLECADAATYYCQSYAYFDSNNWHAFGGGTEVVVRT
notes: also called YP218 human IgG1 antibody

OD450 nm [1]: 0.05
OD450 nm [2]: 0.62
OD450 nm [3]: 0.05
OD450 nm [4]: 0.62
OD450 nm [5]: 0.98
OD450 nm [6]: 0.11
OD450 nm [7]: 1.75
OD450 nm [8]: 0.05
OD450 nm [9]: 0.7
OD450 nm [10]: 0.12
OD450 nm [11]: 2.29
OD450 nm [12]: 0.04
OD450 nm [13]: 0.06
OD450 nm [14]: 0.04
OD450 nm [15]: 0.05
OD450 nm [16]: 0.04
OD450 nm [17]: 0.05
OD450 nm [18]: 0.05
OD450 nm [19]: 0.05
B3: Tab106 (YP218, hIgG1) (antibody, V domains shown)
VH: B2 VH
VL: B2 VL
notes: also called YP218 human IgG1 antibody; anti-human MSLN-R3 antibody (Tab106)

MFI [32]: 17900
MFI [33]: 767
B4: Tab106 (YP218, hIgG1) (antibody, V domains shown)
VH: B2 VH
VL: B2 VL
notes: as for B2
